Test results from US20260132208A1 (DOMAIN THERAPEUTICS, published 2026).
Where “and” joins values, the source holds several entries; their conditions need not be identical. Equal values may be shown once. Read-outs that look alike come from different tables or passages of the source.

Experiments:
human CCR8 [1] = biological target: T1, human CCR8 (human, UniProt P51685 1-355); experiment: cell-based or functional assay
pm2 = biological target: T2, pm2 (sulfated tyrosine(s) among Y15, Y16, Y17; which ones is not told (the underlining of Table 1 is lost in the text)); experiment: ELISA on coated peptide [cont.]
T2 construct: also called sulfated CCR8 N-terminal peptide pm2
How it was run: (§1)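 Optical density after 15 min TMB development is the read-out, correlated with antibody binding to the coated peptide. Plates carried peptide at 500 ng/ml in carbonate/bicarbonate buffer. Antibodies were incubated at 1 μg/mL and at a tenfold dilution for 90 min at room temperature, followed by washes.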

pm4 = biological target: T3, pm4 (sulfated tyrosine(s) among Y15, Y16, Y17; which ones is not told (the underlining of Table 1 is lost in the text)); experiment: ELISA on coated peptide [cont.]
T3 construct: also called sulfated CCR8 N-terminal peptide pm4
How it was run: as §1

pm1 = biological target: T4, pm1 (sulfated tyrosine(s) among Y15, Y16, Y17; which ones is not told (the underlining of Table 1 is lost in the text)); experiment: ELISA on coated peptide [cont.]
T4 construct: also called sulfated CCR8 N-terminal peptide pm1
How it was run: as §1

pm8 = biological target: T5, pm8 (Y15, Y16 and Y17 sulfated); experiment: ELISA on coated peptide [cont.]
T5 construct: also called sulfated CCR8 N-terminal peptide pm8
How it was run: as §1

pm6 = biological target: T6, pm6 (Y16 and Y17 sulfated; Y15 not sulfated); experiment: ELISA on coated peptide [cont.]
T6 construct: also called sulfated CCR8 N-terminal peptide pm6
How it was run: as §1

pm5 = biological target: T7, pm5 (Y15 and Y17 sulfated; Y16 not sulfated); experiment: ELISA on coated peptide [cont.]
T7 construct: also called sulfated CCR8 N-terminal peptide pm5
How it was run: as §1

pm3 = biological target: T8, pm3 (Y17 sulfated; Y15 and Y16 not sulfated); experiment: ELISA on coated peptide [cont.]
T8 construct: also called sulfated CCR8 N-terminal peptide pm3
How it was run: as §1

[2] = biological target: T9, human CCR8 with a SNAP-tag at the N-terminus (human, UniProt P51685 1-355, SNAP-tag labelled covalently with Lumi4-Terbium); experiment: HTRF Tag-lite, inhibition of hCCL1-AF647 binding to SNAP-hCCR8 on HEK-293 cells
T9 construct: also called hCCR8 SNAP-tag; CCR8 SNAP-tag
Experimental: (§2) The inhibition of CCL1 binding to hCCR8 was evaluated with the Tag-Lite® technology from Cisbio (Revvity). Human CCR8 is engineered with a SNAP-tag at the N-terminus of the GPCR. hCCR8 SNAP-tag is transiently transfected on HEK-293 cell line using FuGene® (Promega, Madison, WI, USA). 48 hours after transfection, cells are labeled with the substrate Lumi4-Terbium® (Cisbio, Codolet, France) which covalently reacts with the SNAP-tag, for 1 h at 37° C. Thawed or freshly labeled cells are plated in a 384 low volume white plate (GREINER Bio-One, Courtaboeuf, France) (10000 cells/well/10 μl). […] The Kd was previously obtained in a saturation binding assay on the same cells. […] The plate is next incubated at 21° C. for 2 h. Detection of HTRF signal is performed on the multiplate reader EnVision (PerkinElmer, Waltham, MA, USA). The HTRF (665/620) ratio is calculated by EnVision software, the data exported are considered as the total binding. The specific binding is calculated then by subtracting the non-specific signal from the total binding. The Ki and IC₅₀ are calculated using the “One site-Fit Ki” and “One site-FitlogIC50” from GraphPad Prism 9 (Graphpad Software, San Diego, CA, USA), respectively.

[3] = biological target: T9, human CCR8 with a SNAP-tag at the …; experiment: as above; remark: listed apart in the source
Experimental: as §2

human CCR8 [4] = biological target: T1, human CCR8; experiment: flow cytometry, inhibition of hCCL1-AF647 (10 nM) binding to hCCR8-CHO cells
How it was run: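 hCCR8-transfected CHO cells preincubated 30 min at 4 °C with anti-CCR8 mAb (8 concentrations, top 10 μg/mL, 1/3 dilutions), washed, then exposed to labelled CCL1. Bound CCL1 quantified by flow cytometry; IC₅₀ of binding blockade from sigmoidal variable-slope fit.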

human CCR8 [5] = biological target: T1, human CCR8; experiment: cell-based or functional assay; remark: listed apart in the source
human CCR8 [6] = biological target: T1, human CCR8; experiment: flow cytometry, hCCR8-transfected CHO-K1 cells
How it was run: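 Antibody incubation ran 30 min at 4° C, followed by fluorescent anti-mouse or anti-human IgG secondary for 30 min at 4° C. Isotype-matched mAbs served as nonspecific-binding controls.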

human CCR8 [7] = biological target: T1, human CCR8; experiment: flow cytometry competition on hCCR8 transfected CHO cells; blocked ligand hCCL1-AF647 [cont.]
Experimental: The hCCR8 transfected CHO cell line was dispatched at a density of 1.105 per well in a 96-well plate. Cells were incubated for 30 min at 4° C. with or without anti-CCR8 mAb tested at 10 μg/mL then diluted at 1/3. Unbound antibodies were washed away with PBS (Gibco, Villebon-sur-yvette, France) supplemented by 2% Fetal Bovine Serum (Invitrogen by Thermofisher Scientific, Illkirch-Graffenstaden, France) and 2 mM EDTA. […] After washing unbound ligands, CCL1 bound detection is quantified on a MacsQuant16 (Miltenyi, Gladbach, Germany) (R1 channel, 5 000 events per acquisition).
For IC₅₀ determination, a concentration response curve is performed using 8 concentrations of mAb. Curves are fitted and IC₅₀ of CCL1 binding blocking activity is calculated using the sigmoidal dose-response (variable slope) model on GraphPad Prism 9 (GraphPad Software, San Diego, CA, USA).

human CCR8 [8] = biological target: T1, human CCR8; experiment: cell-based or functional assay; remark: listed apart in the source

T6 sequence (peptide, as listed by the source): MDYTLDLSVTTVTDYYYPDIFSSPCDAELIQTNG
T7 sequence (peptide, as listed by the source): as above
T5 sequence (peptide, as listed by the source): as above
T8 sequence (peptide, as listed by the source): as above
T3 sequence (peptide, as listed by the source): as above
T4 sequence (peptide, as listed by the source): as above
T2 sequence (peptide, as listed by the source): as above

B1: anti-CCR8 mAb 1-19 (antibody, human IgG1, kappa, V domains shown)
VH: EVQLVESGGGLVQPGRSLRLSCTASGFTFNTYAMNWVRQAPGKGLEWVARIRSKSNNYATYYAASVKGRFTISRDDSKSIAYLQMNSLKTEDTAVYYCVRGREAYYRYDGGYYAMDVWGQGTTVTVSS
VL: DIVMTQAAPSLPVTPGESASISCRSSKSLLHSNGNTYLYWFLQKPGQSPQLLIYRMSNLASGVPDRFSGSGSGTAFTLKISRVEAEDVGVYYCMQHLEYPFTFGSGTKLEIKR
notes: Humanized mAb, human IgG1 / kappa
- IC50 of CCL1-induced hCCR8 Gi2 signaling (BRET, HEK-293) (human CCR8 [1]): 0.048 µg/mL and 0.318 nM
- binding result (pm2): binds
- binding result (pm4): binds
- binding result (pm1): binds
- binding result (pm8): binds
- binding result (pm6): binds
- binding result (pm5): binds
- binding result (pm3): binds
- IC50 [2]: 0.1 to 1 nM
- IC50 [3]: 0.02 µg/mL
- Ki [3]: 0.01 µg/mL and 0.06 nM

B2: anti-CCR8 mAb 1-9 (antibody, V domains shown)
VH: EVQLVESGGGLVQPKGSLKLSCAASGFTFNAYAMNWVRQAPGKGLEWLARIRSKSNNYATYYADSVKDRFTISRDDSQSMFYLQMNNLKSEDTAMYYCVRGREAYYRYDGGYYAMDYWGQGTSVTVSS
VL: EIVMTQAALSAPVTPGESVSMSCRSSKSLLHSNGNTYLYWFLQRPGQSPQLLIYRMSNLASGVPDRFSGSGSGTAFTLRISRVEAEDVGVYYCMQHLEYPFTFGSGTKLEIK
notes: Murine hybridoma mAb
- IC50 of CCL1-induced hCCR8 Gi2 signaling (BRET, HEK-293) (human CCR8 [1]): 0.015 µg/mL and 0.1 nM
- binding result (pm8): binds
- binding result (pm6): binds
- binding result (pm5): binds
- binding result (pm3): binds
- IC50 (human CCR8 [4]): ~0.91 µg/mL and 6.09 nM
- extrapolated top plateau of hCCL1 curve with 5 µg/mL mAb, protocol #3 (human CCR8 [5]): 533000 % of hCCL1 (100 nM)
- % positive cells (human CCR8 [6]): 81.8%
- MFI fold change to isotype ctrl (human CCR8 [6]): 16.2 fold
- IC50 (read off the curve) (human CCR8 [7]): ~0.9 µg/mL
- residual hCCL1 (100 nM) Gi2 response, protocol #2, mAb 0.08 µg/mL (human CCR8 [8]): 88%
- residual hCCL1 (100 nM) Gi2 response, protocol #2, mAb 0.4 µg/mL (human CCR8 [8]): 57%
- residual hCCL1 (100 nM) Gi2 response, protocol #2, mAb 10 µg/mL (human CCR8 [8]): 46%
- residual hCCL1 (100 nM) Gi2 response, protocol #3, mAb 0.05 µg/mL (human CCR8 [8]): 73%
- residual hCCL1 (100 nM) Gi2 response, protocol #3, mAb 0.5 µg/mL (human CCR8 [8]): 36%
- residual hCCL1 (100 nM) Gi2 response, protocol #3, mAb 5 µg/mL (human CCR8 [8]): 36%
